Test results from article PMC10914600, “Synthesis of lipid-linked precursors of the bacterial cell wall is governed by a feedback control mechanism in Pseudomonas aeruginosa” (Nature Microbiology, 2024).

Target: the molecule itself
Assay: cryo-EM structure; YES(T23P) complex (EcMraY(T23P), protein E, SlyD) co-expressed and purified in DDM; 5 mg/ml in 10 mM HEPES pH 7.5, 75 mM NaCl, 2% glycerol, 5 mM βME, 0.03% DDM, 1 mM E. coli total lipid extract; focused refinement of MraY alone after particle subtraction, final map 3.8 Å

B1: E. coli MraY(T23P) (enzyme)
chain: MLVWLAEHLVKYYSGFNVFSYLPFRAIVSLLTALFISLWMGPRMIAHLQKLSFGQVVRNDGPESHFSKRGTPTMGGIMILTAIVISVLLWAYPSNPYVWCVLVVLVGYGVIGFVDDYRKVVRKDTKGLIARWKYFWMSVIALGVAFALYLAGKDTPATQLVVPFFKDVMPQLGLFYILLAYFVIVGTGNAVNLTDGLDGLAIMPTVFVAGGFALVAWATGNMNFASYLHIPYLRHAGELVIVCTAIVGAGLGFLWFNTYPAQVFMGDVGSLALGGALGIIAVLLRQEFLLVIMGGVFVVETLSVILQVGSFKLRGQRIFRMAPIHHHYELKGWPEPRVIVRFWIISLMLVLIGLATLKVR
notes: MraY of E. coli, integral membrane enzyme that forms lipid I; The methods name the plasmid pRSFDuetEcMraY-E_(ID21) without the T23P change; also called ^EcMraY(T23P); MraY of the YES(T23P) complex; source: E. coli ∆slyD BL21(DE3), co-expressed with protein E and SlyD, purified as the YES complex (DDM, NiNTA, SEC)
With B1 the “stoichiometry N” value was 2.
